Laboratory results as given in patent US8591913B2, “Methods of decreasing adipose tissue” (Toru Miyazaki, priority 2009, dated 2013).
Entries after “also recorded” stand apart in the source; their conditions may differ.

Key:
[1] = target: T1, FAS (Mus musculus, UniProt P19096); assay: FAS enzyme activity in lysates of loaded 3T3-L1 cells (malonyl-CoA consumption); assay type: cell-based; settings: C75 25 μM versus AIM 5 μg/mL, schedules (d) and (f)
T1 construct: cell lysates were prepared, and the enzyme activity of FAS was measured; endogenous in cells; host or cells: 3T3-L1 cells (differentiating or differentiated)
Experimental: Whether AIM affected an enzyme activity of FAS or not was examined.
In addition, as a schedule (f) similar to the above-mentioned schedule (e), AIM was loaded for 4 days (day 8 to day 12) after the 3T3-L1 cells differentiated, subsequently the cells were collected on the 10th day (day 12) after the initiation of the differentiation induction, cell lysates were prepared, and the enzyme activity of FAS was measured. The enzyme activity of FAS was measured based on a consumption amount of malonyl-CoA.
(§1) In addition, using a FAS inhibitor (C75) in place of AIM, the FAS inhibitor at a concentration of 25 μM was loaded according to the schedules (d) and (f), and as was the case with the above-mentioned AIM, the cells were collected on the 2nd day (day 4: schedule (d)) and 10th day (day 12: schedule (f)) after the initiation of the differentiation induction, and the enzyme activity of FAS was measured.
Further, for comparison, the cells cultured without loading AIM in the above-mentioned schedule (a) were also collected at times of the 2nd day (day 4) and 10th day (day 12) after the initiation of the differentiation induction, and the enzyme activity of FAS was measured.
FIG. 11B and FIG. 11C illustrate the results of measuring the FAS enzyme activity (Fatty acid synthase activity) (nmol NADPH/min/mg protein). FIG. 11B illustrates the results obtained on the 2nd day (day 4) after the initiation of the differentiation induction in the case of loading no AIM according to the schedule (a) (None), the case of loading AIM according to the schedule (d) (AIM (5 μg/mL)), and the case of loading the FAS inhibitor according to the schedule (d) (C75 (25 μM)). FIG. 11C illustrates the results obtained on the 10th day (day 12) after the initiation of the differentiation induction in the case of loading no AIM according to the schedule (a) (None), the case of loading AIM according to the schedule (f) (AIM (5 μg/mL)), and the case of loading the FAS inhibitor according to the schedule (f) (C75 (25 μM)).

[2] = tested on: mice; settings: administration of C75 to mice, reported; cited from earlier work
[3] = target: T2, FAS (Homo sapiens, UniProt P49327); assay: Co-immunoprecipitation of HA-tagged AIM and FLAG-tagged FAS in HEK293T cells; assay type: binding; settings: HEK293T cells co-expressing HA-tagged mouse AIM and FLAG-tagged FAS, anti-FLAG or anti-HA antibody
T2 construct: expressed in transfected cells; host or cells: HEK293T
Experimental: Thus, in order to confirm the fact, first, HEK293T cells which co-expressed both AIM (mouse AIM) fused with an HA-tag and FAS fused with a FLAG-tag were produced. Also, the HEK293T cells were collected after being cultured for a predetermined period of time, its cell lysate was prepared, and an immunoprecipitation was performed using an anti-FLAG antibody.
In addition, a co-immunoprecipitation study was performed using HEK293T cells which express both FAS tagged with FLAG and mouse AIM tagged with HA, and an anti-FLAG antibody or an anti-HA antibody.

[4] = tested on: 3T3-L1 preadipocytes; assay: Differentiation of 3T3-L1 preadipocytes into mature adipocytes, oil-red-o staining; assay type: cell-based, mouse; settings: mouse AIM and human AIM compared, in vitro
Experimental: In order to examine how AIM produced by the macrophages infiltrating the adipose tissues works on surrounding adipocytes, an experiment in which AIM was loaded during a culture process of differentiating 3T3-L1 preadipocytes into the mature adipocytes was performed.
A recombinant mouse AIM protein and a recombinant human AIM protein were used as AIM. Those recombinant AIM proteins were prepared by culturing human-derived HEK293T cells transfected with a vector expressing mouse AIM or human AIM and isolating and purifying the protein from its culture supernatant. The same recombinant AIM proteins were also used as AIM in other examples shown below. AIM was loaded by adding AIM at a concentration of 5 μg/mL to the culture medium.
Differentiation induction (Induction) of the 3T3-L1 cells was initiated by first culturing the 3T3-L1 cells for 4 days (day −2 to day 2) to proliferate the cells (Cell proliferation) and subsequently culturing the cells in a culture medium containing insulin, dexamethasone (DEX), and isobutylmethylxanthine (IBMX) for 2 days (day 2 to day 4). The differentiation induction was further continued by culturing the cells in a culture medium containing insulin for 2 days (day 4 to day 6).
After the period of the differentiation induction (day 2 to day 6), the culture was continued in a culture medium not containing those differentiation-inducing factors. Then, the cells on the 10th day (day 12) after the initiation of the stimuli for differentiation induction were stained with oil-red-o, and the differentiation of the 3T3-L1 cells to mature adipocytes was observed.
as §1
FIG. 12A and FIG. 12B show the results of staining the cells with oil-red-o and analyzing the gene expression by RT-PCR on the 2nd day (day 4) after the initiation of the differentiation induction in the case of loading no AIM according to the schedule (a) (None), the case of loading AIM according to the schedule (d) (AIM (5 μg/mL)), and the case of loading the FAS inhibitor according to the schedule (d) (C75 (25 μM)), respectively.

[5] = tested on: mature adipocytes (differentiated 3T3-L1 cells); assay: Induction of lipolysis in mature 3T3-L1 adipocytes (lipid droplets, glycerol and free fatty acid efflux); assay type: cell-based, mouse; settings: mouse AIM and human AIM compared, same range of concentrations in vitro
Experimental: The effect of AIM on mature adipocytes was examined.
Then, the cells on the 10th day (day 12) after the initiation of the stimuli for differentiation induction were stained with oil-red-o. The number of cells having lipid droplets was counted. Further, the diameter of lipid droplets was measured in the cells having lipid droplets. For comparison, the number of the cells was counted and the diameter of lipid droplets was measured for the cells cultured in the above-mentioned schedules (a) and (d).
Further, the supernatant of the culture medium after the cells were cultured while loading AIM according to the schedule (e) was collected, and amounts of glycerol and free fatty acid (FFA) contained in the supernatant were measured by ELISA. For the comparison, the amounts of glycerol and free fatty acid in the culture supernatant obtained according to the schedule (a) were also measured.
In order to avoid adsorption of free fatty acid to albumin contained in the culture medium, the culture medium supplemented with 10% FBS (fetal bovine serum) was exchanged to a serum-free culture medium on the 10th day (day 12) after the initiation of the differentiation induction, further the cells were cultured in the serum-free culture medium for 6 hours, and subsequently the amounts of glycerol and free fatty acid contained in the supernatant of the serum-free culture medium were measured.
FIG. 7A and FIG. 7B illustrate the evaluation results of the number (per 10^4 μm^2) of cells having lipid droplets (Droplet (+) cells) and the relative diameter of lipid droplets (%) obtained according to the schedules (a), (d), and (e) (Exp. a, d, and e), respectively. The relative diameter of lipid droplets illustrated in FIG. 7B was calculated by defining the diameter of lipid droplets in the cells obtained according to the schedule (a) without AIM loading as 100%. FIG. 8A and FIG. 8B illustrate the concentration of glycerol (Glycerol Efflux, mM) and the concentration of free fatty acid (FFA Efflux, ×10 mM) in the culture medium obtained according to the schedules (a) and (e) (Exp. a and e), respectively.
In addition, FIG. 13A and FIG. 13B illustrate the results of measuring the glycerol concentration (glycerol efflux, mM) and the free fatty acid concentration (FFA efflux, ×10 mM) in the culture medium on the 10th day (day 12) after the initiation of the differentiation induction in the case of loading no AIM according to the schedule (a) (None), the case of loading AIM according to the schedule (f) (AIM), and the case of loading the FAS inhibitor according to the schedule (f) (C75), respectively.

[6] = tested on: human mesenchymal stem cells (HMSCs); assay: Adipogenesis of human mesenchymal stem cells (HMSCs) with rhAIM; assay type: cell-based
Experimental: In order to confirm that AIM also acts upon adipogenesis in human cells, the differentiation of human mesenchymal stem cells (HMSCs) (Lonza Walkersville Inc., USA) was stimulated in the presence or absence of recombinant human AIM (rhAIM).
That is, HMSCs were cultured in a mesenchymal stem cell basal medium (MSCBM) (Lonza Walkersville Inc.) for 10 days until the cells became confluent. Subsequently, the adipogenesis of the cells was stimulated by culturing the cells in the presence or absence of rhAIM (10 μg/mL) together with human insulin, MCGS, dexamethasone, indomethacin, and IBMX for 3 days (adipogenesis induction) (reference: Janderrova et al., Obes. Res., 11: 65, 2003). After the stimulation, the cells were cultured in MSCBM in which human insulin and MCGS had been added for an additional 10 days. Then, the cells were collected and stained with oil-red-o.
FIG. 36A, FIG. 36B, and FIG. 36C show the results of observing the cells before the stimulation of adipogenesis (Pre-stimulation), after the stimulation in the absence of rhAIM (rhAIM (−)), and after the stimulation in the presence of 10 μg/mL rhAIM (rhAIM (10 μg/mL)) under the phase contrast microscope, respectively.

T2 sequence (P49327 whole entry): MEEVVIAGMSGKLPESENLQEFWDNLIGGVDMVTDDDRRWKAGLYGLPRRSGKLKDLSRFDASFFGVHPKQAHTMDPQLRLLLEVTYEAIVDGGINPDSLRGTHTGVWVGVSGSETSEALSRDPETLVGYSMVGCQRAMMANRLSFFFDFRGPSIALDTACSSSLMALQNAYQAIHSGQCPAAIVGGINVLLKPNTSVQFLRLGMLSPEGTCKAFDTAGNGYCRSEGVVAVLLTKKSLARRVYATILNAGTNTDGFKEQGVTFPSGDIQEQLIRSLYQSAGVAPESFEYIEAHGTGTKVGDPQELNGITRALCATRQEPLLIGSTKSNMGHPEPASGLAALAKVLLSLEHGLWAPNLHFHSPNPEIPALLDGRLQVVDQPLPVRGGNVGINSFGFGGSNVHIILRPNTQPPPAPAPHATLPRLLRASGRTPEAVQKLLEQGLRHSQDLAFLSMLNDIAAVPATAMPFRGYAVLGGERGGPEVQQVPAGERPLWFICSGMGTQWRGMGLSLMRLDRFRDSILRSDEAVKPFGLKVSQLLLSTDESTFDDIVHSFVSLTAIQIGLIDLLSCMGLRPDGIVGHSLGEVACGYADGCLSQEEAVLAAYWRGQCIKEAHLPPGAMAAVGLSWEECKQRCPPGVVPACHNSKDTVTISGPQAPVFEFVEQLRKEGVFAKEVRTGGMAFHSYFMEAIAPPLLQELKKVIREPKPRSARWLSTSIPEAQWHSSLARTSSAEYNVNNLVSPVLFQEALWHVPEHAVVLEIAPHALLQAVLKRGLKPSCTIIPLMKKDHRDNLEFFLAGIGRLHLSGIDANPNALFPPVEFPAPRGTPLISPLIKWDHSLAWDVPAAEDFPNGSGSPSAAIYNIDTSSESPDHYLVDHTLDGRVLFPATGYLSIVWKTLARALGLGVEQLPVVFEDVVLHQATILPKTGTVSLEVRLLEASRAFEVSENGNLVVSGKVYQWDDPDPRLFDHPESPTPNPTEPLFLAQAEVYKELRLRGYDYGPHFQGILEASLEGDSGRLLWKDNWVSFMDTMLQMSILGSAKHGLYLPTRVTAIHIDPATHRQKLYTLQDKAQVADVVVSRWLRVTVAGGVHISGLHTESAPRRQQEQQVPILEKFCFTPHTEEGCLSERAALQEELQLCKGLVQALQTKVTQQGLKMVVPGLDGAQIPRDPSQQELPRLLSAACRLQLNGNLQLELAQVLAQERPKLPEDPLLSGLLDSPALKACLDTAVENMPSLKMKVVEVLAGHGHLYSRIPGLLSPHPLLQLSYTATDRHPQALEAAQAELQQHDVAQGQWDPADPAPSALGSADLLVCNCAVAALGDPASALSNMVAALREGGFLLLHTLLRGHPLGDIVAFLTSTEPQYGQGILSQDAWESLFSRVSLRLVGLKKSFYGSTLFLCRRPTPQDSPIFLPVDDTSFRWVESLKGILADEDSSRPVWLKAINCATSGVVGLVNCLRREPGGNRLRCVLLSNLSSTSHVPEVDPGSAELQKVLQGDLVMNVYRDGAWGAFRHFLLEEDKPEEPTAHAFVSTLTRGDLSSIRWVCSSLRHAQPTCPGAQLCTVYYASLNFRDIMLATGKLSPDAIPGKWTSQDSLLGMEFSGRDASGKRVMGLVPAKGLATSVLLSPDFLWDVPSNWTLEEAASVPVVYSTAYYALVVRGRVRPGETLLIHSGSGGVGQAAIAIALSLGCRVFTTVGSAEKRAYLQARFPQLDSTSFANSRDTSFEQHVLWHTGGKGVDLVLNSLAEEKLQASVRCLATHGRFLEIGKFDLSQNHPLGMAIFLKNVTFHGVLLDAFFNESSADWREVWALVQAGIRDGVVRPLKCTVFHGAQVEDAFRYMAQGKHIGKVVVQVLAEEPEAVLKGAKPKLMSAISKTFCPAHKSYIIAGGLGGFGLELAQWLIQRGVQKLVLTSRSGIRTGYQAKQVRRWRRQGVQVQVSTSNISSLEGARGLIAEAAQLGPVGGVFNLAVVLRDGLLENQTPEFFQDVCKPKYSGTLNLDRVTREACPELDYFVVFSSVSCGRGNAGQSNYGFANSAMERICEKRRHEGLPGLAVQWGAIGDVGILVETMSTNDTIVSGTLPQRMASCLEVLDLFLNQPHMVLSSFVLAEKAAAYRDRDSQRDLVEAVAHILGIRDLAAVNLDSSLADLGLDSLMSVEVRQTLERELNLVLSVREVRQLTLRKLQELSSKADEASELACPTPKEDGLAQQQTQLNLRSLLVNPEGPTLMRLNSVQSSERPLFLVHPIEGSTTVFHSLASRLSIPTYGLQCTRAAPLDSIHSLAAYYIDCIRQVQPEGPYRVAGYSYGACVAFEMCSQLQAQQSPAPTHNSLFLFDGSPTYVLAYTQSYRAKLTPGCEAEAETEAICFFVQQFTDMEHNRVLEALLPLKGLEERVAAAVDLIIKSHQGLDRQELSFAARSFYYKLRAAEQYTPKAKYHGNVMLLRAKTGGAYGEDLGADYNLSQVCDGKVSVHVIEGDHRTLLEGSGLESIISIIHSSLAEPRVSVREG
T1 sequence (P19096 whole entry): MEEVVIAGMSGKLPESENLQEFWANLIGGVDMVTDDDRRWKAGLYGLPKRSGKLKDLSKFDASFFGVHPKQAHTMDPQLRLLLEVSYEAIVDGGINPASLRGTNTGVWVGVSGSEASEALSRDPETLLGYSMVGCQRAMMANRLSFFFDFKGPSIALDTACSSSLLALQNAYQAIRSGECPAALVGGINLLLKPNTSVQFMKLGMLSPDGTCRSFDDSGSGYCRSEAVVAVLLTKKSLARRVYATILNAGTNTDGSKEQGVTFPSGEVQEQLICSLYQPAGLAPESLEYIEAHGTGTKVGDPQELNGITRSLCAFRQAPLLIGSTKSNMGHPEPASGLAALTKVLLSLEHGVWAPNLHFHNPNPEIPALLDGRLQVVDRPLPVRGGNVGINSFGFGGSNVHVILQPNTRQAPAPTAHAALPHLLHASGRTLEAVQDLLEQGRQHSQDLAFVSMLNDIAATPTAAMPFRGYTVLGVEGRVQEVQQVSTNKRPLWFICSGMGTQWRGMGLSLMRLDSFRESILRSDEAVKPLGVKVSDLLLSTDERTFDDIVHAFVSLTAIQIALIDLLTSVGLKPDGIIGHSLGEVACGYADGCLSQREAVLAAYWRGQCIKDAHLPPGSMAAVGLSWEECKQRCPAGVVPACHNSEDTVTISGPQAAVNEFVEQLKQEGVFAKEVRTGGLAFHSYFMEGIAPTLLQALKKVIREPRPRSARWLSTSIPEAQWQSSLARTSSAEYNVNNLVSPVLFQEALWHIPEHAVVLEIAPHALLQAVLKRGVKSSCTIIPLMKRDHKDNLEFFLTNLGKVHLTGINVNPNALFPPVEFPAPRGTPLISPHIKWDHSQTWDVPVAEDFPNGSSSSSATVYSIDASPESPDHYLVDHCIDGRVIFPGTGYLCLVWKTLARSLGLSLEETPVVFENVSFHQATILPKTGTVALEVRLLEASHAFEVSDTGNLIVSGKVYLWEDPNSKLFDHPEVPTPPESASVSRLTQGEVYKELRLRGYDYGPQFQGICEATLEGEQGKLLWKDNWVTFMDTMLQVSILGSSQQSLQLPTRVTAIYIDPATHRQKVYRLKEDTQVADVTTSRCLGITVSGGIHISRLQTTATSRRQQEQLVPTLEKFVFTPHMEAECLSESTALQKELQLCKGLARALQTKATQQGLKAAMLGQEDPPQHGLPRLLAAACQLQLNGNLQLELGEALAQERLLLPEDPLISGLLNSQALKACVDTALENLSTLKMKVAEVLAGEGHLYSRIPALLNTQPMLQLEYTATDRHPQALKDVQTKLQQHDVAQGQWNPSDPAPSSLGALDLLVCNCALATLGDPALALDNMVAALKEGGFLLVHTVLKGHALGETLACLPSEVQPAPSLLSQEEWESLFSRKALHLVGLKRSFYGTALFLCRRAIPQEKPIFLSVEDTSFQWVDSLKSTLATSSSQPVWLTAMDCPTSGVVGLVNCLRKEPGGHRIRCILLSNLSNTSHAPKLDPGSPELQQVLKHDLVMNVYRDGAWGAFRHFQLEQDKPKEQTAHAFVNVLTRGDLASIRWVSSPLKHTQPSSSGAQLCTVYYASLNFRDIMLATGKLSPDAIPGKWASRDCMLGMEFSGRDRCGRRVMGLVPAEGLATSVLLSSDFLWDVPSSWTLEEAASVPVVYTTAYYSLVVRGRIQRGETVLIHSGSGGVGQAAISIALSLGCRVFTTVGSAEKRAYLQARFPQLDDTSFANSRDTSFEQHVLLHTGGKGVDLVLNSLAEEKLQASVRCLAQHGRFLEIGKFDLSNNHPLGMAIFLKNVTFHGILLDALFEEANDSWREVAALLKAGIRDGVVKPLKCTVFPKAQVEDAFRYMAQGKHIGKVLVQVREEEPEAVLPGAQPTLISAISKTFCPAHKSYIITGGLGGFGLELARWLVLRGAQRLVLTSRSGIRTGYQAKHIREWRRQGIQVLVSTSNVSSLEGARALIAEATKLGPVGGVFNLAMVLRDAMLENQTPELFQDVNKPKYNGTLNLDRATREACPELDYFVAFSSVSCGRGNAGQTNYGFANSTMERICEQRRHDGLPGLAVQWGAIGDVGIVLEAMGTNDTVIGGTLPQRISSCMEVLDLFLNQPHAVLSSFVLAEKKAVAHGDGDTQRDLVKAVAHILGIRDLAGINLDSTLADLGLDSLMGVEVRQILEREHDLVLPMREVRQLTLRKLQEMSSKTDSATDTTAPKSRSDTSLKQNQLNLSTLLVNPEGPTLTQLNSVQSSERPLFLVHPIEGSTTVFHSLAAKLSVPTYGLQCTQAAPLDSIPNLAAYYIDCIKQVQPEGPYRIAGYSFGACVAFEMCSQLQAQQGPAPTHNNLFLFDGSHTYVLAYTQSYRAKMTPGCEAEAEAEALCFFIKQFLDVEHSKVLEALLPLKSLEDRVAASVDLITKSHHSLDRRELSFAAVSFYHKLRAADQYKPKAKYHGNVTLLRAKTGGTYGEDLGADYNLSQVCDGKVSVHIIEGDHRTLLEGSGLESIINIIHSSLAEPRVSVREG

Which results are given for `C=C1C(=O)OC(CCCCCCCC)C1C(=O)O` (stereo not shown) [C75]?
levels of reduction of the FAS enzyme activity, C75 compared with AIM [1]: almost the same; amount of neuropeptide Y (NPY) produced in the hypothalamus [2]: reduces; appetite [2]: remarkable loss of appetite; body weight [2]: body weight loss; also recorded: totally accelerated

B1: HA-AIM: AIM (mouse AIM) fused with an HA-tag (protein)
chain: ESPTKVQLVGGAHRCEGRVEVEHNGQWGTVCDDGWDRRDVAVVCRELNCGAVIQTPRGASYQPPASEQRVLIQGVDCNGTEDTLAQCELNYYVFDCSHEEDAGAQCENPDSDLLFIPEDVRLVDGPGHCQGRVEVLHQSQWSTVCKAGWNLQVSKVVCRQLGCGRALLTYGSCNKNTQGKGPIWMGKMSCSGQEANLRSCLLSRLENNCTHGEDTWMECEDPFELKLVGGDTPCSGRLEVLHKGSWGSVCDDNWGEKEDQVVCKQLGCGKSLHPSPKTRKIYGPGAGRIWLDDVNCSGKEQSLEFCRHRLWGYHDCTHKEDVEVICTDFDV
modifications: left off: small tags and cut ends
notes: AIM (mouse AIM) fused with an HA-tag
With B1 as the molecule, how does the “co-precipitation with FLAG-tagged FAS” value [3] read?
Its value is “co-precipitation”.

And the “co-precipitation with FLAG-tagged FAS” value ([3]; listed as mouse AIM tagged with HA)?
The value was “co-precipitated mutually”.

B2: human AIM: protein consisting of the amino acid sequence shown in SEQ ID NO: 1; recombinant, purified from HEK293T culture supernatant (protein)
chain: MALLFSLILAICTRPGFLASPSGVRLVGGLHRCEGRVEVEQKGQWGTVCDDGWDIKDVAVLCRELGCGAASGTPSGILYEPPAEKEQKVLIQSVSCTGTEDTLAQCEQEEVYDCSHDEDAGASCENPESSFSPVPEGVRLADGPGHCKGRVEVKHQNQWYTVCQTGWSLRAAKVVCRQLGCGRAVLTQKRCNKHAYGRKPIWLSQMSCSGREATLQDCPSGPWGKNTCNHDEDTWVECEDPFDLRLVGGDNLCSGRLEVLHKGVWGSVCDDNWGEKEDQVVCKQLGCGKSLSPSFRDRKCYGPGVGRIWLDNVRCSGEEQSLEQCQHRFWGFHDCTHQEDVAVICSG
modifications: human
notes: recombinant, purified from HEK293T culture supernatant
For B2, which “differentiation of 3T3-L1 cells derived from mice / differentiation inhibitory function” value [4] is on record?
The value was “inhibited; also recorded: similarly exerted”.

And the “lipolysis induction function in adipocytes derived from mice” value [5]?
The value was “similarly exerted”.

What about the “differentiation of HMSCs” value ([6]; rhAIM 10 μg/mL during 3 days adipogenesis induction, oil-red-o) of the same molecule?
The value was “dramatically inhibited”.

And the “mRNA level of Glut-4” value ([6]; rhAIM 10 μg/mL, RT-PCR, compared with absence of rhAIM)?
The value was “remarkably decreased”.
